Data reported in the supplement of paper PMC9732359.
± gives the uncertainty stated by the source.

Assay: protein stability index of a GFP-peptide fusion (yeast GPS) (PSI 1-4); higher = more stable; sorted into four equal gates, so the index is relative within each strain
Outline: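 Sequencing reads from sorted gates were used to score each peptide. The library consisted of tiled 17-residue yeast protein peptides fused downstream of GFP on a Cherry-expressing plasmid, pooled and carried in yeast. Mid-log cultures in leucine-free medium were split into four equal gates by GFP/Cherry ratio, and each gate's plasmids were PCR-amplified and Illumina-sequenced. The protein stability index adds up, over all gates, the read frequency multiplied by the gate number.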

Sequence | protein stability index (doa10∆) | protein stability index (pdr5∆) | protein stability index (san1∆) | protein stability index (ubr1∆)
KRHRSSYYDNDLDETTQ [YML031W/NDC1] | 2.8 ± 0.065 | 2.76 ± 0.071 | 2.68 ± 0.053 | 2.71 ± 0.071
KRINFEKIKDIHNTKLP [POP1] | 2.42 ± 0.17 | 3.06 ± 0.13 | 2.87 ± 0.28 | 2.54 ± 0.076
KRITQITIEPGVDVEVV [RPS20] | 2.7 ± 0.089 | 1.78 ± 0.17 | 2.81 ± 0.15 | 2.6 ± 0.09
KRKWSYVLYAKIVVLSR [RRP43] | 1.82 ± 0.06 | 2.36 ± 0.064 | 1.87 ± 0.11 | 2.21 ± 0.056
KRKYDEITHPPSTTDDE [SWI3] | 3.13 ± 0.11 | 3.23 ± 0.12 | 3.18 ± 0.071 | 3.29 ± 0.082
KRKYLDIPIDEMTLPTS [SSN2] | 3.1 ± 0.24 | 2.81 ± 0.15 | 2.77 ± 0.19 | 3.21 ± 0.23
KRQAYAVSEKAGHQTSA [RPL4A] | 2.14 ± 0.12 | 1.4 ± 0.13 | 1.65 ± 0.12 | 2.34 ± 0.078
KRQELEEASQQQQLQQN [MED2] | 2.75 ± 0.056 | 2.65 ± 0.083 | 2.48 ± 0.059 | 2.63 ± 0.061
KRTRLESLKNLNESRSQ [SMC3] | 2.53 ± 0.092 | 2.4 ± 0.075 | 2.61 ± 0.071 | 2.82 ± 0.13
KRVVVPQALRVLRLKPG [RPL16A] | 3.05 ± 0.087 | 3.11 ± 0.1 | 3.15 ± 0.056 | 2.09 ± 0.12
KSAEGNNIDQSLILKES [YAR002W/NUP60] | 2.82 ± 0.095 | 2.86 ± 0.063 | 2.61 ± 0.096 | 3 ± 0.078
KSAVSHAPAYHRSKKDQ [IRR1] | 3.13 ± 0.16 | 2.79 ± 0.11 | – | 3.1 ± 0.069
KSDEGGSYLCTSSTPSP [YOR098C/NUP1] | 3.16 ± 0.065 | 3.09 ± 0.079 | 2.7 ± 0.067 | 3.07 ± 0.06
KSGTSHDAIFSIYKYIH [SNF12] | 2.51 ± 0.059 | 2.66 ± 0.054 | 2.34 ± 0.068 | 2.2 ± 0.046
KSHVLLATPVQFELLSR [BRR2] | 2.31 ± 0.057 | 1.58 ± 0.052 | 2.02 ± 0.066 | 2.08 ± 0.049
KSIMDGIHDGHIKKLLH [FAS1] | 1.54 ± 0.035 | 1.48 ± 0.037 | 1.37 ± 0.075 | 1.38 ± 0.024
KSIQDIVGLATLIVNTD [SRP21] | 2.85 ± 0.054 | 3.05 ± 0.05 | 2.93 ± 0.039 | 2.97 ± 0.037
KSIRKDTVEEKKEEKLN [SIR4] | 2.96 ± 0.088 | 3.2 ± 0.12 | 3.17 ± 0.065 | 2.76 ± 0.091
KSLEDLSCQYDNTVRTS [RPO31] | 1.3 ± 0.19 | 1.31 ± 0.14 | – | –
KSMELFYDIRSLLERHI [YJL039C/NUP192] | 2.84 ± 0.044 | 2.99 ± 0.038 | 2.91 ± 0.04 | 3.07 ± 0.046
KSPSLTAQKYPIYTGDG [YMR153W/NUP53] | 2.33 ± 0.055 | 2.19 ± 0.051 | 2.08 ± 0.069 | 2.01 ± 0.036
KSRMINFLDAPGHVNFM [SNU114] | – | 2.65 ± 0.17 | 3.06 ± 0.12 | 3.57 ± 0.28
KSSDSNDSNPSFSFSIP [YLR335W/NUP2] | 2.62 ± 0.046 | 2.53 ± 0.048 | 2.31 ± 0.058 | 2.81 ± 0.034
KTCQWYSEHLKPYDINV [DIS3] | 2.78 ± 0.28 | 2.95 ± 0.14 | 2.74 ± 0.094 | 2.84 ± 0.072
KTIVTGGNGPEDFQQHE [RPO26] | 3.29 ± 0.069 | 3.33 ± 0.055 | 3.32 ± 0.056 | 3.31 ± 0.039
KTKILEVAIRDVNLDVR [IRR1] | 2.58 ± 0.055 | 2.12 ± 0.065 | 2.38 ± 0.057 | 2.48 ± 0.052

Sequence | protein stability index (doa10∆) | protein stability index (pdr5∆) | protein stability index (san1∆) | protein stability index (ubr1∆)
KTLIGLQGIVIWDSQKF [POP4] | 1.7 ± 0.061 | 1.91 ± 0.051 | 2.17 ± 0.071 | 2.38 ± 0.044
KTPNRSSTPKFTKKPVT [SIR4] | 2.77 ± 0.082 | 2.81 ± 0.082 | 2.91 ± 0.056 | 2.94 ± 0.054
KTPVFTTGGDYILSLVS [YMR129W/POM152] | 2.06 ± 0.056 | 2.13 ± 0.058 | 1.74 ± 0.064 | 1.87 ± 0.044
KTQEYYTQYTNDYLEKH [CDC53] | 2.99 ± 0.062 | 2.42 ± 0.067 | 2.96 ± 0.049 | 3.22 ± 0.062
KTRFKGSQFIVVSLKEG [SMC2] | 3.46 ± 0.12 | 3.16 ± 0.08 | 3.35 ± 0.069 | 3.34 ± 0.046
KTSKDIAVLRSKEWFQL [FAS1] | 2.01 ± 0.033 | 2.07 ± 0.031 | 1.91 ± 0.046 | 2.25 ± 0.032
KTTDHLFDAAFYMKKDA [RPO31] | 3 ± 0.075 | 3.21 ± 0.071 | 3.21 ± 0.05 | 3.05 ± 0.054
KTTPNTASSEASAGSKE [YMR153W/NUP53] | 2.98 ± 0.052 | 3.34 ± 0.061 | 3.16 ± 0.046 | 3.12 ± 0.038
KTYKEGINKNEEYRKQL [SMC1] | 3.23 ± 0.16 | 2.2 ± 0.084 | 2.31 ± 0.077 | 2.19 ± 0.056
KTYNCLHEKYLTEGGSI [SMC1] | 3.03 ± 0.14 | 3.05 ± 0.072 | 2.52 ± 0.076 | 2.98 ± 0.069
KVDIFEIPETGEYSVKL [FAS2] | 3.17 ± 0.093 | 3.37 ± 0.08 | 3.27 ± 0.046 | 2.99 ± 0.049
KVFDTLTRFSHDADLEV [RPN1] | 2.44 ± 0.073 | 2.31 ± 0.054 | 2.44 ± 0.063 | 2.67 ± 0.047
KVGEDIAKATKEFKGIK [RPL12A] | 3.07 ± 0.16 | 3.22 ± 0.14 | 3.25 ± 0.15 | 3.17 ± 0.15
KVGQFDQVLNLCLTEFE [FAS1] | 2.75 ± 0.076 | 2.97 ± 0.062 | 2.73 ± 0.06 | 3.11 ± 0.038
KVKLFHGILDDLETSLS [MED2] | 3.17 ± 0.084 | 3.09 ± 0.075 | 3.14 ± 0.072 | 3.36 ± 0.055
KVLEMKNLKDTASVEKA [YIL149C/MLP2] | 2.95 ± 0.091 | 3.26 ± 0.093 | 3.08 ± 0.098 | 3.21 ± 0.08
KVNPNIMNMIENVEKKE [SMC2] | 2.46 ± 0.13 | 2.71 ± 0.12 | 2.36 ± 0.13 | 2.5 ± 0.064
KVSSLKMFIQRILAMCV [YCS4] | 2.64 ± 0.069 | 2.48 ± 0.061 | 2.23 ± 0.063 | 2.88 ± 0.057
KVVGPRGTLTKNLKHID [RPL9A] | 3.27 ± 0.072 | 2.98 ± 0.065 | 2.8 ± 0.086 | 2.35 ± 0.052
KWAGIKTRKFVFNPPKP [CYT1] | 3.04 ± 0.16 | 2.98 ± 0.24 | 3.05 ± 0.17 | 2.95 ± 0.15
KWEQTYKKPTGGIVTVR [FAS1] | 3.07 ± 0.064 | 2.04 ± 0.054 | 2.2 ± 0.1 | 2.37 ± 0.053
KYKSGGKFSFSPLQKEE [SSN2] | 1.54 ± 0.072 | 1.43 ± 0.064 | 1.46 ± 0.15 | 1.53 ± 0.047
KYKSNTNNMEKIIEDLR [SMC2] | 3.21 ± 0.061 | 3.23 ± 0.055 | 3.23 ± 0.034 | 3.2 ± 0.034
KYLGLKPGSIDAISQVI [FAS1] | 3.1 ± 0.081 | 3.1 ± 0.075 | 2.91 ± 0.048 | 3.01 ± 0.061
KYVHVSEVGNCSGSGMG [FAS2] | 2.88 ± 0.055 | 3.08 ± 0.058 | 2.92 ± 0.051 | 2.92 ± 0.041
LAFDKLNVPVFQIVIEP [ARP7] | 2.12 ± 0.058 | 2.23 ± 0.061 | 1.8 ± 0.079 | 1.7 ± 0.056
